Assay: yeast display, Sf9 membrane polyspecificity reagent, FACS + sequencing; frameworks hold sequencing errors
Outline: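 Polyreactivity labels are assigned by the sorting gate from which each nanobody was recovered. The gates were low and high (top ~1%), set on anti-HA fluorescence for expression and streptavidin fluorescence for reagent binding. Before sorting, galactose-induced (36–48 hours) yeast display cells were stained for 1 hour at 4 °C with 10% biotinylated, detergent-solubilized Sf9 membrane reagent.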

Row | Sequence | polyreactivity (PSR sort gate)
1 | QVQLVESGGGLVQAGGSLRLSCAASGSIFLVYSMGWYRQAPGKERELVAGITSDDSTNYADSVKGRFTISRDNAKNTVYLQMNSLKPEDTAVYYCAKDSLVWYIVDLGYWGQGTQVTVSS | low polyreactivity
2 | QVQLVESGGGLVQAGGSLRLSCAASGSIFLWYTMGWYRQAPGKERELVAAISSSGGSTYYADSVKGRFTISRDNAKNTVYLQTNSLKPEDNAVYYCAAAKLFYYGRKYGKYDYWGQGTQVTVSS | high polyreactivity
3 | QVQLVESGGGLVQAGGSLRLSCAASGSIFLYNAMGWYRPAPRKERELVAAISKSGGSTYYADSVKGRFTISRDNAKNTVYLQMNSLKPEDSAVYYCAAGYGRRIRYGSDYDYWGQGTQVTVSS | low polyreactivity
4 | QVQLVESGGGLVQAGGSLRLSCAASGSIFLYNAMGWYRQAPGKERELVAAISASGGSTYYADSVKGRFTISRDNAKNTVYLQMNSLKPEDTAVYYWAAQYSDYDGFTWPLPPRYDYWGQGTQVTVSS | high polyreactivity
5 | QVQLVESGGGLVQAGGSLRLSCAASGSIFLYNAMGWYRQAPGKERELVADITSAGRTYYADSVKGRFTISRDNAKNTVYLQMNSLKPEDTAVYYCNKDYHYHFSWYGYWGQGTQVTVSS | low polyreactivity
6 | QVQLVESGGGLVQAGGSLRLSCAASGSIFLYYAMGWYRPAPGKDRELVAAIRRGGNTNYADSVKGRFTISRDNAKNTVYLQMNSLKPVDTAVYYCAAAQYSRYSRVPNYYAGTYYYWGQGTQVTVSS | low polyreactivity
7 | QVQLVESGGGLVQAGGSLRLSCAASGSIFLYYAMGWYRQAPGKERELVAAITGGGGTNYADSVKGRFTISRDNAKNTVYLQMNSLKPEDTAVYYCAADTSGQFPYSYYNYDYDYWGQGTQVTVSS | low polyreactivity
8 | QVQLVESGGGLVQAGGSLRLSCAASGSIFLYYAMGWYRQAPGKERELVASISSGGSTNYADSVKGRFTISRDNAKNTVYLQMNSLKPEDTAVYYCAARPYGGGRRSIYYYWGQGTQVTVSS | high polyreactivity
9 | QVQLVESGGGLVQAGGSLRLSCAASGSIFLYYVMGWYRKAPGKERELVAAITWDGGSTYYADSVKGRFTISRDNAKNTVYLQMNSLKPEDTAVYYCNKGFKLWPRYGYDYWGQGTQVTVSS | low polyreactivity
10 | QVQLVESGGGLVQAGGSLRLSCAASGSIFNAMGWYRQAPGKERELVAAITSGSSTYYADSVKGRFTISRDNAKNTVYLQMNSLKPEDTAVYYCAAGSQRRYYHTNWDSFNYWGQGTQVTVSS | low polyreactivity
11 | QVQLVESGGGLVQAGGSLRLSCAASGSIFNAYAMGWYRQAPGKERELVAAISKRTSYADSVKGRFTISRDNAKNTVYLQMNSLKPEDTAVYYCAKEVDEPDGYEYDYWGQGTQVTVSS | low polyreactivity
12 | QVQLVESGGGLVQAGGSLRLSCAASGSIFNEYAMGCYRQAPGKERELVAAISTSGDITYYADSVKGRFTISRDNAKNTVDLQMNSLKPEDTAVYYCAAKYSLLRQYNRLDSWGQGTQVTVSS | low polyreactivity
13 | QVQLVESGGGLVQAGGSLRLSCAASGSIFNGYAMGWYRQAPGKERELVADIRSGGSTYYADSVKGRFTISRDNAKNTVYLQMNSLKPEDTAVYYCAADTITDGYDYWGQGTQVTVSS | low polyreactivity
14 | QVQLVESGGGLVQAGGSLRLSCAASGSIFNKYAMGWYRQAPGKERELVATISFRGGSTYADSVKGRFTISRDNAKNTVYLQMNSLKPEDTAVYYCATKSGRNSPRMDYWGQGTQVTVSS | high polyreactivity
15 | QVQLVESGGGLVQAGGSLRLSCAASGSIFNRNVMGWYRQAPGKERELVAAITWSGASTYYADSVKGRFTISRDNAKNTVYLQMNSLKPEDTAVYYCAATQYYRGYDYWGQGTQVTVSS | high polyreactivity
16 | QVQLVESGGGLVQAGGSLRLSCAASGSIFNRYAMGWYRPAPGKERELVAAISRSGGRTYYADSVKGRFTISRDNAKNTVYLQMNSLKPEDTAVYYCAADKYYRQHEFDYWGQGTQVTVSS | high polyreactivity
17 | QVQLVESGGGLVQAGGSLRLSCAASGSIFNRYAMGWYRQAPGKERELVAAISTHTGTTYYADSVKGRFTISRDNAKNTDYLQMNSLKPEDTAGYYCAKRSRYGYGKSYDYWGQGTQVTVSS | high polyreactivity
18 | QVQLVESGGGLVQAGGSLRLSCAASGSIFNRYAMGWYRQAPGKERELVAAISTHTGTTYYADSVKGRFTISRDNAKNTVYLQMNSLKPEDTAVYYCAKRSRYGYGKSYDYWGQGTQVTVSS | high polyreactivity
19 | QVQLVESGGGLVQAGGSLRLSCAASGSIFNSNAMGWYRQAPGKERELVAAITGSGGRTYYADSVKGRFTISRDNAKNTVYLQMNSLKPEDTAVYYCNAVTYSRRYAYYDWGQGTQVTVSS | high polyreactivity
20 | QVQLVESGGGLVQAGGSLRLSCAASGSIFNVNTMGWYRQAPGKERELVAAISYSGGSTYYADSVKGRFTISRDTAKNTVYLQMNSLKPEDTAVYYCAAESYIEYYLKYDYWGQGTQVTVSS | low polyreactivity
21 | QVQLVESGGGLVQAGGSLRLSCAASGSIFNVYAMGWYRQAPGKERELVAAISDGDGSTFYADSVKGRFTISRDNAKNTVYLQMNSLKPEDTAVYYCAKDYRWDSKFDYWGQGTQVTVSS | low polyreactivity
22 | QVQLVESGGGLVQAGGSLRLSCAASGSIFNVYAMGWYRQAPGKERELVAAISDGDGSTFYADSVKGRFTISRDNAKTTVYLQMNSLKPEDTAVYYCAKDYRWDRKFDYWGQGTQVTVSS | low polyreactivity

Row | Sequence | polyreactivity (PSR sort gate)
23 | QVQLVESGGGLVQAGGSLRLSCAASGSIFNVYGMGWYRQAPGKERELVAAISKSGTSTSYADSVKGRFTISRDNAKNTVYLQMNSLKPEDTAVYYRNAGYRTWWGKKYDYWGQGTQVTVSS | low polyreactivity
24 | QVQLVESGGGLVQAGGSLRLSCAASGSIFNWNAMGWYRQAPGKERDLVATITITTSTNYADSVKGRFTISRDNAKNSVYLQMNCLKPEDNGVYYCNAGDPYRYLDDYNYWGQGTKVTVSS | low polyreactivity
25 | QVQLVESGGGLVQAGGSLRLSCAASGSIFNWYTMGWYRQAPGKERELVAVITQSGGSTYYADSVKGRFTISRDNAKNTVYLQMNSLKPEDTAVYYCAKRYWSYQYGYRMYYWGQGTQVTVSS | high polyreactivity
26 | QVQLVESGGGLVQAGGSLRLSCAASGSIFNYNAMGWYREAPRKERELVAAITWRGGTTSYADSVKGRFSISRDNAKNTVYLQMNSLKPEDTAVYYCNAYQWRHRYTMYYWGQGTQVTVSS | high polyreactivity
27 | QVQLVESGGGLVQAGGSLRLSCAASGSIFNYNMGWYRQAPGKERELVAAVSTNYADSVKGRFTISRDNAKNTVYLQMNSLKPEDPAGYYCGVTPEKSGDQYDYWGPGTQVTVSS | low polyreactivity
28 | QVQLVESGGGLVQAGGSLRLSCAASGSIFNYYAMGRYRQAPGKERELVAAIETTGGSTYYADSVKGRFTISRDNAKNTVYLQMNSLKPEDTAVYYCAATWAKPWYYEYDYWGQGTQVTVSS | low polyreactivity
29 | QVQLVESGGGLVQAGGSLRLSCAASGSIFNYYAMGWYRQAPGKEREFVAGITTSGGSTYYADSVKGRFTISRDNAKNTVCLQMNSLKPEDTAVYYCAAYDYISSTYFLDDYWGQGTQVTVSS | low polyreactivity
30 | QVQLVESGGGLVQAGGSLRLSCAASGSIFNYYAMGWYRQAPGKERELVAAIRSTGSTNYADSVKGRFTISRDNAKNTVYLQMNSLKPEDTAVYYCATDVSDWLYFAEHYYWGQGTQVTVSS | low polyreactivity
31 | QVQLVESGGGLVQAGGSLRLSCAASGSIFNYYAMGWYRQAPGKERELVAGITTSGGSTYYADSVKGRFTISRDNAKNTVYFQMHSLKPEDTAVYYGAAYDYISSTYFLDDYWGQGTQVTVSS | low polyreactivity
32 | QVQLVESGGGLVQAGGSLRLSCAASGSIFNYYAMGWYRQAPGKERELVATISSGGNTKYADSVKGRFTISRDNAKNTVYLQMNSLKPEDTAVYYCAARWQHSGYRDRYWYDYWGQGTQVTVSS | low polyreactivity
33 | QVQLVESGGGLVQAGGSLRLSCAASGSIFNYYAMGWYRQAPGKERELVATITRGGSTYYADSVKGRFTISRDNAKNTVYLQMNRLKPEDTAVYYCAKVGRSTAYQNGYDYWGQGTQVTVSS | low polyreactivity
34 | QVQLVESGGGLVQAGGSLRLSCAASGSIFNYYAMGWYRQAPGKVRELVATISSGGNTKFADSVKGRFTISRDNAKNTVYLQMKSLKPEDTAVYFCGARWQHSGYRDRYCYDYWGQGTQVTVSS | low polyreactivity
35 | QVQLVESGGGLVQAGGSLRLSCAASGSIFNYYAMGWYRQEPGKERELVAAISSGGSTYYADSVKGRFTISRDNAKNTVYLQMNSLKPEDTAVYYCAVDSPYLDEYDYWGQGTQVTVSS | high polyreactivity
36 | QVQLVESGGGLVQAGGSLRLSCAASGSIFNYYTMGWYRQAPGKERELVAAISWSGGSTYYADSVKGRFTISRDNAKNTVYLQMNSLKPEDTAVYYCAAVVRYSQAGYYYWGQGTQVTVSS | high polyreactivity
37 | QVQLVESGGGLVQAGGSLRLSCAASGSIFPFYAMGWYRQAPGKERELVAAISWSVGNTYYADSVKGRFTISRDNAKNTVYLQMNRLKPEDTAVYYCAARQDPPLGYDYWGQGTQVTVSS | low polyreactivity
38 | QVQLVESGGGLVQAGGSLRLSCAASGSIFPGNTMGWYRQAPGKERELVAVITKRGGRTYYADSVKGRFTISRDNAKNTVYLQMNSLKPEDTAVYYCARAPSYSTGVSIRDYWGQGTQVTVSS | high polyreactivity
39 | QVQLVESGGGLVQAGGSLRLSCAASGSIFPGYAMGWYRQAPGKERELVADITSGDTTKYADSVKGRFTISRDNAKNNVYLQMNSLKPEDTAVYYCAADDYLTDFDYWGQGTQVTVSS | low polyreactivity
40 | QVQLVESGGGLVQAGGSLRLSCAASGSIFPGYTMGWYRQAPGKESELVAAITSSGGSTYYADSVKGRITISRDNAKNTVYLQMNSLKPEDTSVYYCAADTTNYFVPFDYWGLGTQVTVSS | low polyreactivity
41 | QVQLVESGGGLVQAGGSLRLSCAASGSIFPHYAMGWSRQAPGKEREFVATISGSTGRTYYADSVKGRFTISRDNAKNTVYLQMNSLKPEDTAVYYCATSVGYYLPPIKYDYWGQGTQVTVSS | low polyreactivity
42 | QVQLVESGGGLVQAGGSLRLSCAASGSIFPINAMGWSRQAPGKERELVAAITVSDGRTYYADSVKGRFTISRDNAKNTVYLQMNSLKPEDTAVYYCAAVTPFRVLYDYWGQGTQVTVSS | low polyreactivity
43 | QVQLVESGGGLVQAGGSLRLSCAASGSIFPIYAMGRYRQAPGKEMELVAAINRSGGSTYYADSVKGRFTISRDNAKNSVYLQMNSLIPEDTAVYYCNADYGYHNQLFWGYYGWSSDHWGQGTQVTVSS | low polyreactivity
